In the DeepSol protein solubility set:

Assay: soluble on expression in E. coli; label from the status in PepcDB or PDB records

Sequence | soluble on expression in E. coli
MHHHHHHGKPIPNPLLGLDSTENLYFQGIDPFTEFMDSTDLFDVFEETPVELPTDSNGEKNADTNVGDTPDHTQDKKHGLEEEKEEHEENNSENKKIKSNKSKTEDKNKKVVVPVLADSFEQEASREVDASKGLTNSETLQVEQDGKVRLSHQVRHQVALPPNYDYTPIAEHKRVNEARTYPFTLDPFQDTAISCIDRGESVLVSAHTSAGKTVVAEYAIAQSLKNKQRVIYTSPIKALSNQKYRELLAEFGDVGLMTGDITINPDAGCLVMTTEILRSMLYRGSEVMREVAWVIFDEVHYMRDKERGVVWEETIILLPDKVRYVFLSATIPNAMEFAEWICKIHSQPCHIVYTNFRPTPLQHYLFPAHGDGIYLVVDEKSTFREENFQKAMASISNQIGDDPNSTDSRGKKGQTYKGGSAKGDAKGDIYKIVKMIWKKKYNPVIVFSFSKRDCEELALKMSKLDFNSDDEKEALTKIFNNAIALLPETDRELPQIKHILPLLRRGIGIHHSGLLPILKEVIEILFQEGFLKVLFATETFSIGLNMPAKTVVFTSVRKWDGQQFRWVSGGEYIQMSGRAGRRGLDDRGIVIMMIDEKMEPQVAKGMVKGQADRLDSAFHLGYNMILNLMRVEGISPEFMLEHSFFQFQNVISVPVMEKKLAELKKDFDGIEVEDEENVKEYHEIEQAIKGYREDVRQVVTHPANALSFLQPGRLVEISVNGKDNYGWGAVVDFAKRINKRNPSAVYTDHESYIVNVVVNTMYIDSPVNLLKPFNPTLPEGIRPAEEGEKSICAVIPITLDSIKSIGNLRLYMPKDIRASGQKETVGKSLREVNRRFPDGIPVLDPVKNMKIEDEDFLKLMKKIDVLNTKLSSNPLTNSMRLEELYGKYSRKHDLHEDMKQLKRKISESQAVIQLDDLRRRKRVLRRLGFCTPNDIIELKGRVACEISSGDELLLTELIFNGNFNELKPEQAAALLSCFAFQERCKEAPRLKPELAEPLKAMREIAAKIAKIMKDSKIEVVEKDYVESFRHELMEVVYEWCRGATFTQICKMTDVYEGSLIRMFKRLEELVKELVDVANTIGNSSLKEKMEAVLKLIHRDIVSAGSLYL | soluble
MSLSNQLLLGMSEFGLSYIINFSEFNQHVLVPATTGSGKTTLLQLLVQHAVKFNFPVILIDGKGARDTLESMREIAKFYDKEVHAFTDDGDMRYNPVEHGNDISIRDKLVSLAETESVFYSGAAKALLQVTIQLLDEFKGAKVTLSGDTRTTETVERSLPFVQRFLLPRNVLHLFADAILPNNPKLFEIEVEKKIQKPKKKSVKEGSEILPDSDLDKEEKEEDSQIKNSKFRNISQLGIAQKETETIVLNPETLDLDSYYLLLKRNLRYLPTDKETGENIKQKLFERLFIRYEHKDSPFYLYATSEALQTNINMLLDSELGKLFDTKNAKNVLDVQEIVNQRKLVYVSFNGLIYKEYIRTLAQMLVGDVNYFASEMYRKNVKREVLVIFDEPASYLNETFIDMVNKGRGAGVYGIFTPQTMADIAKLGDKLMEQLVGNVNTLFIGKTNEKGEAEYWSETMGTYQDIDVTSVTEQEDGYSDVGKSDWSGDRGTKRNVDRFKISPNKIKELRTGEFIIYRTAENVNLPPQKVYVRNALEWLQKSNSEGHHHHHH | soluble
MGSDKIHHHHHHMSDSVSIAKYMHRDCLHCPAPLVGTSFKPCHFADIVDNGLQDGFFEVHAENYMGKGGPPHRALSALRETYPVSVHGVCLSIGGPSPLDAHHLARFRDVVARYEPVLVSEHLAWSSHGGAFYNDLLPLPYTKATLDRVCAHVDQIQEAIARPLLLENPSTYVGFASSTMSETEFIAAVAGRTGCGLLLDINNAFVSATNHGCSAADYLADFPLEQVGEIHLAGHSEQRDDEDEPLLIDSHDRPIAGPVWALYASVIARTGPVPTLVEWDSQLPDWLVLRAQALEARRIMDAAVASPVEVADHAL | not soluble
MQNHVISLASAAERRAHIAATFGARGIPFQFFDALMPSERLEQAMAELVPGLSAHPYLSGVEKACFMSHAVLWKQALDEGLPYIAVFEDDVLLGEGAEKFLAEDAWLKERFDPDSAFIVRLETMFMHVLTSPSGVADYCGRAFPLLESEHWGTAGYIISKKAIRFFLQHFVMLQPEQIKPIDLMMFSDFFDKEGMPVYQVSPALCAQELHYAKFHDQNSALGSLIEHDRLLNRKQQRRDSPANTFKRRLIRALTKISLEHHHHHH | soluble
MGSDKIHHHHHHAGCEEEASLSARSVVEAGETEREKTELDKWILDTFTRPYGIEVEYRWDKNAVQNGSYIYPPEVANVKSVLNTIKTLWIDLYTAPELGGDKFLLGKNPLKIYMYGGRNVDGNGMELLDNLEATTNEMFLYNVNDFNPQDEDKVFILMRSVHHQFARHLMELFPYDRSKFLSISRNKYIESTKSIAWIFKGETQGRRGFILAGYPNKKGFFTFHSLLSPEKDFAEIISLKLTYGPKDLLQALDRAKTPYNAGSDKDLQKEYDEQALQAYKELVEKQAFVEDYFSKEIKISLNYLQLISMKQVKEFINKK | not soluble
MSYGPQLPAFLMKGQIKENEVDDEAEEGAPQVYGPVIPGMEEPKNEKEKHDDQEETSVFGPSIPKEVREKLQNVENPAEDDEEDEEFPSQSYGPSIPSNFRPTVGPSIPGTFGDDSDEDIGPMPVAKGDEEKEAIDRAYRMVLQKEAEDDEKNFQPKREEWMTSVPKKLGNFGLGARTFKKGTTSERDASWEDAPGAKKRRNEETRSARSVGIAAADARQAAIVAEKTSGPSLLEIHQKKRDEKVKDAGYAQGERRPFDREKDMEVRGLKPGGSKEAVDRMKEFADRFANSKDQRFL | not soluble
MANLPSSSGMFSRLLANVFNTTVASRCSASGRWWPQPEYELSKHRSRAPSMGIHRRTRLNVVDNSALGKEADTTGKLPYCIHVYKQGRRAKHMPHAELGDKILVAIRGQMRKAYVVGANTHVHYRKHGVPVTDQNMIVLLDEEGNPLGNRITAPIPTKLMANRGNVQFSKVLALANKFI | soluble
MLRRIKRFLGLSTHAYFPNNEVAPTADGSLISTMSRKSTKSERKAAKKEKKRSQLADTSAPAIFHVPTAPADIVTEGEGSTVGQGSEIDRRTVITDSLPYREPSDKVYMGSPPSTVPQAPESSSSTRSLVGSDSIKSRLESMTIDGTSSVLQHVDSLTNSVYSAEFCQEVDSQNTCDAKSRELPVDCDIPTATEPLPISTKSNPVSNSSLTYMADVKLILPDKRDEKSEEVAGMKQLNAELDGLLKTSAPPFQVSTARLPPMLRELPPPANDESMLSGNDEFDDSKNNSVARYLNESHEVMMRSPENKHLRSCGY | not soluble
MTEITHRTKTRPVKVGNLTIGGNNEVVVQSMTTTKTHDVEATVAEIKRLEEAGCQVVRVACPDMRAAEAIPAIKKQISIPLVVDIHFDYKLALKAIEGGADKIRINPGNIGKRHKVEAVVKAAKEKGIPIRIGVNAGSLEKRILDKYGYPTADGMVESALHHIKILEDLDFHDIIVSMKASDVNLAIEAYEKAAKAFDYPLHLGITESGTLFAGTVKSAAGLGAILNMGIGNTVRVSLSADPVEEVKVARELLKSFGLASNAATLISCPTCGRIEIDLISIANEMEEYISKIRAPIKVAVLGCAVNGPGEAREADIGIAGARGEGLLFRKGEIVRKVPEETMVEELKKEIDKIAEEYFAKQKELEKA | not soluble
MCVGVPMTVVTSDNGTALCERRGEQRRVSTLLIGEVAVGDRVLVFIDNAMRLLEPDEARLIDDALDGLAAAMQGRDFEHLFADLIDREPQLPAFLRNDVVPPHG | not soluble
MGSDKIHHHHHHMEGHIVITGATGVIGSEVARRLIKSGREVVVFARSPQSAAAKVPGAADYVRWDSDMAPDGWSSSIDGAYAVIHLAGRPLLETRWTEEHKVACYDSRIKGTRALVAAMASASVKPKVFVSSSAIGYYGSFDRCEETDPLTEKAAPGKDFLAKICFDWEKEARPAETLGTRVVLLRTGIVLSTKGGMLQKMMIPFSYFVGGPVGSGDQCLSWIHLDDEVSIILQALDNADWSGPVNAVAPEPVSMKAFADSLGLVMHRPSLFPVPKLAVQILLGEGADYAVKGQKVSPEFLKERDFHFAWPSLNEALADLVSRGI | not soluble
